In the experiment the target is Human fibrinogen (human) (UniProt P02671). Nature of the experiment: ELISA; Fg coated on wells (5 μg/ml, 0.5 μg/well); GST-vWbp or GST-Coa proteins in 1% BSA, 0.05% Tween 20, TBS, 1 h at room temperature; detected with HRP anti-GST; one-site fit, apparent KD, mean of three experiments.
Chain of Human fibrinogen (human) (P02671 36-866, chain 1 of 3): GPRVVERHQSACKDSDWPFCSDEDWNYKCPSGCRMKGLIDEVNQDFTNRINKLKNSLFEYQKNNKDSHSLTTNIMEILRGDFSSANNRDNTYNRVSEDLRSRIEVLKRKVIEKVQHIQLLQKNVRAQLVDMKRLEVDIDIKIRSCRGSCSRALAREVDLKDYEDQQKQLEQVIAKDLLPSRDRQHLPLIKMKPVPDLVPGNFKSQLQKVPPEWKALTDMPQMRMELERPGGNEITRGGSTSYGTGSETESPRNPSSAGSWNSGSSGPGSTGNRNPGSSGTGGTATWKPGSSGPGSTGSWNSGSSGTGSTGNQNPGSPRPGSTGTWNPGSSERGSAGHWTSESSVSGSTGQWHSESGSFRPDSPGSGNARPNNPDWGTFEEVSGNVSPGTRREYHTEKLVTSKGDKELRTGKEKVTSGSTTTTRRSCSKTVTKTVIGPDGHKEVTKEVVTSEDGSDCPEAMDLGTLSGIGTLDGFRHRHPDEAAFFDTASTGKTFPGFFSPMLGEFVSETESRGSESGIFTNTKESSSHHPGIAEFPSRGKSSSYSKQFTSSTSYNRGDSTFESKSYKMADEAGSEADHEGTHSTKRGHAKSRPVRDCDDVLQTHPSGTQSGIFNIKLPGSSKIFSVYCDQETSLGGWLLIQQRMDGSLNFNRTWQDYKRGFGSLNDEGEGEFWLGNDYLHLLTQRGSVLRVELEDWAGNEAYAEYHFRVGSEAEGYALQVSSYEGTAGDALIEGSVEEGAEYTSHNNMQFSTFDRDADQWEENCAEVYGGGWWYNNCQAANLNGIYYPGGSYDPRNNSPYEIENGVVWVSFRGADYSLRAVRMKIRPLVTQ
Chain of Human fibrinogen (human) (P02675 45-491, chain 2 of 3, further chain): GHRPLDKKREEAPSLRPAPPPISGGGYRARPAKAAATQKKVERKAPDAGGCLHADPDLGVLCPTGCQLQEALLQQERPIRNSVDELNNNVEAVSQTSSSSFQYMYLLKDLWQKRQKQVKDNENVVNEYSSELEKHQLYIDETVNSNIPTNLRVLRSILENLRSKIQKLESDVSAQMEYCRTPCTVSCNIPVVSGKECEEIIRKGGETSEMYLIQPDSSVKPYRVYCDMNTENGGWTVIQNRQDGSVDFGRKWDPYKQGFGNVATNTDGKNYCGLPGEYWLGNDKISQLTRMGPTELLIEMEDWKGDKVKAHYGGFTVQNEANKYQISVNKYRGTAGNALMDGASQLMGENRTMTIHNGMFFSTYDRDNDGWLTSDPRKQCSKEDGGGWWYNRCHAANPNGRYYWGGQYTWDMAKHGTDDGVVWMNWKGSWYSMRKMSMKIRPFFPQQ
Chain of Human fibrinogen (human) (P02679 27-453, chain 3 of 3, further chain): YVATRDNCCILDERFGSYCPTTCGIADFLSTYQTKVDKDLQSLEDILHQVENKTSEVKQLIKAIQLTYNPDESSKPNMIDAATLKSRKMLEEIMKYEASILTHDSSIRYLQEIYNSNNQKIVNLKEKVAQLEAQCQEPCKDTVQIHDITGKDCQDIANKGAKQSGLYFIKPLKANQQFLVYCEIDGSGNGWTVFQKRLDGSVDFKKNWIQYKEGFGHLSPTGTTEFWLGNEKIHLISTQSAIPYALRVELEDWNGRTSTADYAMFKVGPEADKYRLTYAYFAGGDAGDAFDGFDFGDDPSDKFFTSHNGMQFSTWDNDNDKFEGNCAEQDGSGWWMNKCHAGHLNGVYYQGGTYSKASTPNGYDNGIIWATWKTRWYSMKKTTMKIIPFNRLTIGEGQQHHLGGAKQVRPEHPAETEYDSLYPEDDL

Take “GST-vWbp-C (C-terminal half of vWbp) (domain or fragment)”: the Kd turned out to be 38 nM.
The figure for “GST-vWbp-N (N-terminal half of vWbp) (domain or fragment)” is 3.2 nM.

The values are drawn from publication PMC6476931.
